In publication PMC8637272:

System: enolase (ENO) (Mycoplasma gallisepticum S6)
Assay: EMSA
Conditions: EMSA: 20 mM carbonate buffer pH 9.8, 6% glycerol, 2.5 pmol FAM-DNA, 10 min 37 C, 6% acrylamide gel at 10 C. AFM: 20 mM Tris-HCl pH 7.5 (Methods; Fig 6 legend …)

Row | Substance | Kd (Hill n 3.1 +/- 0.6) [nM] | Kd (Hill n 2.7 +/- 0.8) [nM]
1 | Peno | 1000 | 
2 | Pgapd |  | 1100
